# Results taken from the nanobody polyreactivity screen of Harvey et al. (2022).
# Assay: yeast display, Sf9 membrane polyspecificity reagent, FACS + sequencing; frameworks hold sequencing errors
# Procedure, shortened: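 Nanobodies from a synthetic yeast display library (Saccharomyces cerevisiae BJ5465), induced 36–48 hours with galactose, were stained 1 hour at 4 °C with 10% biotinylated, detergent-solubilized Sf9 membrane reagent, enriched on streptavidin microbeads, then FACS-sorted. Anti-HA (expression) and streptavidin (reagent binding) fluorescence set low and high (top ~1%) gates. Polyreactivity labels come from the gate of origin. Genes were colony-PCR amplified, MiSeq 2 × 250 sequenced and filtered by CDR length.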
row,Sequence,polyreactivity (PSR sort gate)
1,QVQLVESGGGLVQAGGSLRLSCAASGFTFDPYAIGWYRQAPGKERELVAAISISGGRTYYADSVKGRITISRDNAKNTVYVQMISLKPEDSAVYYCAVAQSHYFGGYGYWGQGTKVTVSS,low polyreactivity
2,QVQRVESGGGLVQAGGSLRLSCAASGSTLYGYALGWYRQAPGKERELVAAISVSGGRTYYADSVKGRFTISRDNAKNTVYLQMNSLKPEDTAVYYCAADGLSPYSGDYWGQGTQVTVSS,high polyreactivity
3,QVQLVESGGGLVQAGGSLRLSCAPSGLTYLYAMGWYRQAPGKETELVAAISSSGGSTYYADSVKGRFTISRDNAKNTVSLQMNSLNPEDTGVYYCAAYTRGWLGYDYWGQGTQVTVSS,high polyreactivity
4,QVELVESGGGLVQPGGRLRLSCAASGRIFRYNTMGWYRQAPGKEREFVAAITQRGVNTYYADSVKGRFTISRDNAKNTVYLQRNSLKPEDTAVYYCNAKRYSYWIYRAYDYWGQGTQVTVSS,low polyreactivity
5,QDQLVESVVGLVQAGGSLSLSCDSSARTFWYNAMGCYRQAPGKEREFVAAISSSGGTTYYADSVKGRFTISRDNAKNTVYLQMNSLKPEDTAVYYCAKRFSLLSTVRWGRYNYWGQGTQVTVSS,high polyreactivity
6,QVQLVESGGGLVQAGGSLRLSCAASGSIITVNAMGWYRQAPGKEREFVAGITSIGGRTYYADSVKGRFTISRDNAKNTDYLQMNSLKPEDTAVYDCNKRTYRARYDYWGQGTQVTVSS,high polyreactivity
7,QVQLVESGGGLVQAGGSLRLSCAASGRIFYSNTMGWNRQAPGKEREMVATITSGGSTNYADSVKGRFTISRDNAKNTVYFQMNILKPEDTAVYYCAADAYATHPFRSESDYWGQGTQVTVSS,low polyreactivity
8,QVQLVESGGGLVQAGGSLRLSCAASGRTFYPYVMGWYRQAPGKEREFVAAISGTGGSTYYADSVKGRFTISRDNAKNTVYLQMNSLKPEDTAVYYCNRRIPYTSYSYGYWGQGTQVTVSS,high polyreactivity
9,QVQLVESGGGLVQAGGSLRLSCAASGRIFYGYAMGWYRQAPGKERELVAAITSRGTSTYYADSVKGRFTISRDTAKNTVYLQMNSLKPEDTAVYYCNAAYGRSFYSKVFSYNYWGQGTQVTVSS,high polyreactivity
10,QVQLVESGGGLVQAGGSLRLSCAEYAMGCYRQAPGKERELVATITARGGSTYADSVKGRFTISRDNAKNTVYLQMNSLKPEDTAVYYCNADYGLFYRATFYGYDYWGQCTQVTVSS,low polyreactivity
11,QVQLVESGGCLVQAGGSLRLSCAASGRISGFNAMGWYRQAPGKERELVAANSYRGGSTYADSVKGRFTISRVNAKNTVYLQMNSLKPEDTAVYYCAAQSYWTFHTYYYWGQGTQVTVSS,low polyreactivity
12,QVQLVESGGGLVQAGGSLRLSCAASGHTLAVKAKGWYRQAPGKERELVAAITRSGVTTSYADSVKGRFTISRDNAQNTFYLQLHSVKPEDTAVSYCAAQLDASYLTGGWRRHYNYWGQGTQVTVSS,low polyreactivity
13,QVQLVESGGGLVQAGGSLRLSCAASGSTFSKYAMGWYRQAPGKERELVAAISRSGGNTYYADSVKGRFTISRDNAKNTVYLQMNSLKPEDTAVYYCATTLYSYSTGRYRLDYWGQGTQVTVSS,high polyreactivity
14,QVQLVESGGGLVQAGGSLRLSCAASGLIFSTNDMGWYRQAPGKERELVAAITSDVSTYYADSVKGRFTISRDNAKNTVYLQMNSLKPEDTAVYYCAKDDSGYINWRYDYWGQGTQVTVSS,low polyreactivity
15,QVQLEESGGGLVQAGGSLRLSCAASGSTFTRYAMGWYRQAPGKERELVAAISRGGSTNYADSVKGRFTISRDNAKNTVYLQMNSLKPEDTAVYYCAARSWYLRYDYWGQGTQVTVSS,high polyreactivity
16,QDQQVESGGGLVQAGGSLRLSSAASGRTFGTYALGWYRQARGNERELVAAITKSGGSTYYADSVKGRFIISRDNAKNTVYLQMNSLKPEDTAVYYCAAAVPRYRVYYWGQGTQVTVSS,high polyreactivity
